According to PMC4737123:

Columns and labels:
[1] = molecular target: purified human IgM (non‐specific IgM) (human); assay: AUC; sedimentation velocity, 40 000 r.p.m., 20°C, PBS; FV6 alone, IgM alone, and IgM (0.2 μM) with FV6 at molar ratios 1:1, 1:2 and 1:3; continuous size distribution (SEDFIT)
[2] = molecular target: purified human IgM (non‐specific IgM) (human); assay: SPR; Biacore 2000; IgM (750 RU) immobilised on a CM4 chip by amine coupling; FV6 or FV2 flowed over (1.125-18 nM); HEPES buffer (0.01 M HEPES, 0.15 M NaCl, 3 mM EDTA, 0.005% P20) pH 7.4, 20°C; global 1:1 interaction model

Row | Substance | stoichiometry N [1] | Kd [2] | koff [2] | kon [2]
1 | recombinant full‐length HB3VAR06 (FV6), entire ectodomain of the PfEMP1 protein HB3VAR06 (domain or fragment) | 2 FV6 per IgM | 0.1 nM | 0.0003 s⁻¹ | 2.3e+06 M⁻¹ s⁻¹
2 | recombinant full‐length IT4VAR04 (a VAR2CSA‐type PfEMP1; FV2) (natural protein) | – | 0.3 nM | 0.00051 s⁻¹ | 1.8e+06 M⁻¹ s⁻¹
